Measured values taken from US7460961B2, “N-TRADD active site and uses thereof” (Genetics Institute, LLC, priority 2000, dated 2008).
Substitutions are numbered along the chain they refer to. Names may count otherwise. Ends that are not written are not given here.

T1: N-TRADD/C-TRAF2 interaction (Homo sapiens, UniProt Q12933)
T1 construct: The C-TRAF2 (residues 262-501) used in the instant HSQC titration experiment; initiator Met added before residue 262 (N); 6xHis (C); made in house; host or cells: C-TRAF2: baculovirus in 'Tini' cells; N-TRADD: E. coli BL-21
T1 sequence (Q12933 262-501): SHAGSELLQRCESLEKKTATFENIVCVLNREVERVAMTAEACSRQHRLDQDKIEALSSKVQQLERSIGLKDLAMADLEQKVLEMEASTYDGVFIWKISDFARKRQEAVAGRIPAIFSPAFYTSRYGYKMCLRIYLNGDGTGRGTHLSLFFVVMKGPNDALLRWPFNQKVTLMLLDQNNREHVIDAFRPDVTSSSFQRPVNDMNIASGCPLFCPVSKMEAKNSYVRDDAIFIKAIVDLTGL

T2: N-TRADD/C-TRAF2 binding (Homo sapiens, UniProt Q12933)
T2 construct: The C-TRAF2 (residues 262-501) used in the instant HSQC titration experiment; initiator Met added before residue 262 (N); 6xHis (C); made in house; host or cells: C-TRAF2: baculovirus in 'Tini' cells; N-TRADD: E. coli BL-21
T2 sequence (Q12933 262-501): T1 sequence (Q12933 262-501)

T3: N-TRADD (Homo sapiens, UniProt Q15628)
T3 construct: The polypeptide for N-TRADD (1-169) was overexpressed in BL-21 E. coli; His tag (C); made in house; host or cells: E. coli BL-21, vector pRSETB
T3 sequence (Q15628 1-169): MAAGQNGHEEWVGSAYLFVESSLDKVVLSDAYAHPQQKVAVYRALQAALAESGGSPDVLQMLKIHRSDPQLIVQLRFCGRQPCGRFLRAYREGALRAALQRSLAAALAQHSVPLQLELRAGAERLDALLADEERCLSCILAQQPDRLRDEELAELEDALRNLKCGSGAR

T4: C-TRAF2 (residues 262 to 501 of human TRAF2) (human, UniProt Q12933 262-501)
T4 construct: range 262-501; Expressed by baculovirus; Amine-coupled to a CM5 chip in the BIAcore experiments; also called C-terminal domain of TRAF2; C-TRAF2 (residues 262-501)
T4 sequence: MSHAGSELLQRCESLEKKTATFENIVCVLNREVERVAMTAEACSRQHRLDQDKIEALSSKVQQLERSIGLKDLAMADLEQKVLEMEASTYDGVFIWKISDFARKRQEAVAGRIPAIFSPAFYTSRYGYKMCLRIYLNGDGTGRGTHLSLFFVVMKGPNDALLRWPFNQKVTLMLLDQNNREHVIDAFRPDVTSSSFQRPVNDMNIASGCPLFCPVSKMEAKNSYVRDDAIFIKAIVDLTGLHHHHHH

B1: 13-mer peptide derived from CD40 (SNTAAPVQETLHG-OH) (peptide)
peptide: SNTAAPVQETLHG-OH
notes: Synthesised by Fmoc solid-phase methods; printed with a free C-terminus (-OH); also called CD40 peptide; CD40-derived peptide
B2: CD40-p1 peptide (YPIQET) (peptide)
peptide: YPIQET
notes: Peptide of McWhirter et al; also called CD40-pl; 6-mer peptide
B3: N-terminal domain of human TNFR-1 associated death domain protein (N-TRADD), residues 1-169, wild type (other)
chain: T3 sequence (Q15628 1-169)
notes: Expressed in E. coli BL-21; monomeric (>95%) by SEC-HPLC; 15N or 15N/13C labelled for NMR; also called N-TRADD (1-169); wild-type N-TRADD; not shown: His tag introduced after aa169
B4: N-TRADD I72A mutant protein (other)
chain: T3 sequence (Q15628 1-169) with I72A
notes: also called 172A (so in the source); not shown: His tag after aa169 of the N-TRADD construct
B5: N-TRADD H65A mutant protein (other)
chain: T3 sequence (Q15628 1-169) with H65A
notes: Single point mutant of the N-TRADD (1-169) construct; not shown: His tag after aa169 of the N-TRADD construct
B6: N-TRADD D149A mutant protein (other)
chain: T3 sequence (Q15628 1-169) with D149A
notes: as for B5
B7: N-TRADD Y16A mutant protein (other)
chain: T3 sequence (Q15628 1-169) with Y16A
notes: as for B5

Experiments:
[1] = biological target: T1, N-TRADD/C-TRAF2 interaction; assay: BIAcore competition for binding of N-TRADD to C-TRAF2
Description: (§1) C-TRAF2 and N-TRADD binding studies: The affinity of wild-type N-TRADD and C-TRAF2 was measured by surface plasma resonance using a BIAcore 2000 system (Pharmacia Biosensor AB). C-TRAF2 (residues 262-501) was purified and coupled to a sensor chip CM5 by amine coupling at pH=5.0 to get about 800, 1500 and 5500 response units on three different flow cells. A constant flow (20 μL/min) of purified N-TRADD protein in 10 mM Hepes, pH=7.4, 150 mM NaCl, 3.4 mM EDTA and 0.05% P20 surfactant at 8 different concentrations from 650 μM to 84 μM was applied over the protein coupled chip for 2 min to analyze the association. Binding constants were obtained from the BIAevaluation software.
In the instant studies, the interaction between a 13-mer peptide derived from CD40 (a longer version of CD40 -pl, with sequences SNTAAPVQETLHG (SEQ ID NO:2)) with C-TRAF2 was characterized, as well as its effect on the N-TRADD/C-TRAF2 interaction. […] In addition the peptide was also able to compete for the binding of N-TRADD to C-TRAF2, with an IC50 of ˜1 mM.
In addition to this 13-mer peptide, the effect of the CD40-p1 peptide (McWhirter et al, Proc. Natl. Acad. Sci. USA 96: 8408-8413, 1999) on the interaction between N-TRADD and C-TRAF2 was also evaluated. […]

N-TRADD/C-TRAF2 binding = biological target: T2, N-TRADD/C-TRAF2 binding; assay: 1H-15N HSQC NMR study of N-TRADD/C-TRAF2 binding, inhibition by peptide; settings: peptide 3 mM; N-TRADD and C-TRAF2 110 μM each; data not shown
Description: (§2) NMR Spectroscopy: All NMR spectra were collected on a 600 MHZ Varian Unity Plus spectrometer. For the backbone assignments, HNCACB and HN(CO)CACB experiments (Clore and Gronenborn, Methods Enzymol. 239: 349-363, 1994; Muhandiram, et al., J. Magn. Reson. B103: 208-216, 1994) were performed. To confirm the type of amino acid assignment, C(CO)NH-TOCSY (Grzesiek, et al., J. Magnetic Resonance, B101: 114-119, 1993) was used. Side chain resonances were assigned from the following experiments: HBHA(CO)NH (Clore and Gronenborn, Methods Enzymol. 239: 349-363, 1994), HC(CO)NH-TOCSY (Grzesiek, et al., J. Magnetic Resonance. B101: 114-119, 1993) for the ^15N/^13C sample in 90% H2O, 10% D2O, HCCH-TOCSY for the ^15N/^13C-labeled sample in D2O, and ^15N-TOCSY-HSQC with the uniformly labeled ^15N protein.
The ^1H-^15N HSQC of N-TRADD was used as a tool to map the binding interface with C-TRAF2, since the chemical shifts of contact residues will be perturbed upon complex formation. […] The C-TRAF2 (residues 262-501) used in the instant HSQC titration experiment (at 120 μM) is also a trimer, as determined by size exclusion chromatography. […] N-TRADD Mutagenesis and interactions between C-TRAF2 and N-TRADD: In order to further characterize the amino acids in N-TRADD that are involved in C-TRAF2 recognition, site directed mutants of N-TRADD were prepared and evaluated for their ability to bind C-TRAF2. […]

N-TRADD [2] = biological target: T3, N-TRADD; assay: 1H-15N HSQC of N-TRADD with addition of peptide; format: binding
Description: as §2
Inhibition by the CD40-derived peptide was also observed in the ^1H-^15N HSQC studies of N-TRADD/C-TRAF2 binding. At stoichiometric concentrations of N-TRADD and C-TRAF2 (110 μM each), HSQC peaks for N-TRADD have broadened out due to binding to C-TRAF2 as described above.

N-TRADD [3] = biological target: T3, N-TRADD; assay: BIAcore experiment, CD40 peptide with N-TRADD; format: binding; settings: final peptide concentration approximately 15 mM; data not shown
[4] = biological target: T4, C-TRAF2 (residues 262 to 501 of human …); assay: BIAcore (SPR)
[5] = biological target: B3; assay: 1H-15N HSQC NMR
[6] = biological target: T4, C-TRAF2 (residues 262 to 501 of human …); assay: BIAcore competition; competitor N-TRADD
[7] = biological target: T4, C-TRAF2 (residues 262 to 501 of human …); assay: inhibition of the N-TRADD/C-TRAF2 interaction; competitor N-TRADD
[8] = biological target: T4, C-TRAF2 (residues 262 to 501 of human …); assay: BIAcore (SPR), C-TRAF2 amine-coupled to CM5 chip, N-TRADD in flow
Description: as §1, with “µL/min)” for “μL/min)”, “µM” for “μM”

[9] = biological target: T4, C-TRAF2 (residues 262 to 501 of human …); assay: BIAcore surface plasmon resonance, C-TRAF2 (printed TF2-C) coupled to the CM5 chip, N-TRADD mutant in the flow
[10] = biological target: T4, C-TRAF2 (residues 262 to 501 of human …); assay: BIAcore (SPR), C-TRAF2 on chip
Description: as §1, with “µL/min)” for “μL/min)”, “µM” for “μM”

SNTAAPVQETLHG-OH [13-mer peptide derived from CD40, SNTAAPVQETLHG-OH]
inhibition of the interaction between N-TRADD and C-TRAF2 (in words) [1]: inhibited
effect on 1H-15N HSQC spectrum of N-TRADD broadened by C-TRAF2 (N-TRADD/C-TRAF2 binding): restored the ^1H-^15N HSQC spectrum of N-TRADD alone
interaction between N-TRADD and peptide (changes in 1H-15N HSQC of N-TRADD) (N-TRADD [2]): No interaction
interaction between peptide and N-TRADD by BIAcore (N-TRADD [3]): lack of interaction

B1
Kd [4]: ~1000 µM
binding result [5]: no binding
IC50 [6]: ~1000 µM

B2
IC50 [7]: ~200 µM

B3
Kd [8]: 6 µM

B4
binding result [9]: binds

B5
binding result [9]: binds

B6
binding result [9]: binds

B7
fold reduction in C-TRAF2 affinity against wild-type N-TRADD [10]: ~16 fold
